Columns and labels:
Experiment in all cases: SPR
[1] = molecular target: recombinant GP38 of CCHFV 200406546-Turkey (Crimean-Congo hemorrhagic fever virus, …, UniProt A0A0U2SQZ0, strain)
[2] = molecular target: recombinant GP38 of CCHFV Oman-199809166 (Crimean-Congo hemorrhagic fever virus, …, UniProt A0A0U3C6Q7, strain)
[3] = molecular target: recombinant GP38 of CCHFV Kosova-Hoti (Crimean-Congo hemorrhagic fever virus, …, UniProt B2BSL7, strain)

Measured: Kd

B1: ADI-58048 IgG (antibody, V domains shown)
VH: QLQLQESGPGLVKPSETLSLTCTVSGGSITTSHYYWGWIRQPPGKGLEWVGSMYYSGGIYYNPSLKGRVTISVDTSKNQFSLKLSSVTAADTAVYYCALADAPDDAFDIWGQGTMVTVSS
VL: DIQMTQSPSSLSAFVGDRVTITCRASQSISSYLNWYQQKPGKAPKLLIYAASTLQSGVPSRFSGSGSGTDFTLTISSLQSEDFATYYCQESYSIPFTFGPGTKVDIK
< 0.398 nM: all assays above

Source: article PMC11346345 (Cell reports, 2024)
